Measured values taken from publication PMC8548718 (Frontiers in Molecular Biosciences, 2021).

Target: T1, PD1-Fc (UniProt Q15116)
T1 construct: PD-1 (programmed cell death protein 1); most likely the extracellular domain of human PD-1 on a human IgG Fc
Assay: BLI; BLItz system; biotinylated 102c3 nanobody immobilised on SA2 biosensors, dipped in serial dilutions of PD1-Fc
Conditions: both partners purified

T1 sequence (Q15116 25-170): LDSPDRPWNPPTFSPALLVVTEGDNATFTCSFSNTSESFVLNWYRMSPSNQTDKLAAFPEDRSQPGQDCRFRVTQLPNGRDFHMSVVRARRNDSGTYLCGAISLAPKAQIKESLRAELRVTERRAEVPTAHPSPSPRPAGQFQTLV

- binding result: binds
B1: nanobody 102c3 (anti-PD1 single-domain antibody, VHH), biotinylated (VHH)
VHH: EVQLVESGGGLVQAGKSLRLSCAASGSIFSIHAMGWFRQAPGKEREFVAAITWSGGITYYEDSVKGRFTISRDNAKNTVYLQMNSLKPEDTAIYYCAADRAESSWYDYWGQGTQVTVSS
notes: the whole synthesised fragment translates to MGSR...PQPDPSP; also called 102c3 nanobody; 102c3 VHH; source: E. coli BL21DE3-BirA, periplasm extract, purified (HIS Mag Sepharose Excel, dialysis against PBS); not shown: biotinylation signal, C-terminal, kept
